Like-named read-outs stand apart in the source and are kept apart here. Ends that are not written are not given here.

Assay [1] deals with T1, mouse serum albumin (MSA, Sigma-Aldrich) (mouse, UniProt P07724 25-608).
T1 construct: also called mouse albumin
Briefly: BIAcore, MSA; DMS0168 (DOM7m-16 AlbudAb). On the technique in general: In SPR one partner is held on a chip, and binding of the other changes the refractive index at the surface.

Assay [2] concerns the target T2, human TNFR1 on MRC-5 cells (human, UniProt P19438 30-455).
T2 sequence (looked up): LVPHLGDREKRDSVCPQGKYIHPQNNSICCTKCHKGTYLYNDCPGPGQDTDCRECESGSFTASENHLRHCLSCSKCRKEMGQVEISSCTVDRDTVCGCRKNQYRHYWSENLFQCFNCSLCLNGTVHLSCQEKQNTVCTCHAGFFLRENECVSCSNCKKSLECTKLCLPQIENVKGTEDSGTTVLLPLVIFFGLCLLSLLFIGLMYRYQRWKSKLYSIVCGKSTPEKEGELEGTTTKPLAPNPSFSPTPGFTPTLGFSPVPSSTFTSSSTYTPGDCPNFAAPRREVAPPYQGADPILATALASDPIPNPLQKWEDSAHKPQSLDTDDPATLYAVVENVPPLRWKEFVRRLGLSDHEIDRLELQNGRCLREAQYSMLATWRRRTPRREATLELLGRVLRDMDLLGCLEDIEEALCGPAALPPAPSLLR
Kind of assay: cell-based or functional assay.

Assay [3] has as its target T3, human TNFR1 (recombinant, R&D Systems cat no. 636-R1/CF, biotinylated) (human, UniProt P19438 30-211, limits assumed, biotinylated with EZ-Link NHS-LC-LC-biotin).
T3 construct: it is not tied to the BIAcore reagent; also called p55; hTNFR1
T3 sequence (looked up): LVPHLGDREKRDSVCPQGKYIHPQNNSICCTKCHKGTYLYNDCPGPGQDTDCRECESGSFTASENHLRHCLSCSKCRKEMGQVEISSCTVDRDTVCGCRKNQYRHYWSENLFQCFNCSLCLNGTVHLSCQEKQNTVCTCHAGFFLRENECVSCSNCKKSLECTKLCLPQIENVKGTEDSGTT
Kind of assay: BIAcore, human TNFR1 on SA chip.

The target in assay [4] is T4, peptide D2 (domain-1 peptide of human TNFR1) (human, cysteine pairing not given here; also: biotinylated, position not given here).
T4 construct: also called peptide 1
T4 peptide: SGSGNSICCTKCHKGTYLY
Kind of assay: BIAcore, biotinylated peptide D2 on SA chip, dAb at 2.5 µM.

The target of assay [5] is T2, human TNFR1 on MRC-5 cells. Briefly: cell-based or functional assay. This is another data set of the same source.
Assay [6] addresses T5, peptide D5 (domain-3 peptide of human TNFR1) (human, also: biotinylated, position not given here).
T5 construct: also called peptide 2
T5 peptide: SGSGCRKNQYRHYWSENLF
Kind of assay: BIAcore, biotinylated peptide D5 on SA chip, dAb at 2.5 µM.

In assay [7] the target is T3, human TNFR1 (recombinant, R&D Systems …). Briefly: BIAcore, human TNFR1 on SA chip. From the text:
(§1) A significant advantage for an anti-TNFR1 dAb would be cross-reactivity between different species. Given the limited conservation of the sequence of the extracellular domain of TNFR1 between mouse, dog, Cynomologus monkey and human (FIG. 6), it would be exceptional for any antibody or single variable domain to recognize TNFR1 of these different species at similar affinities. […] For each of these experiments the TNFR1 was biotinylated using EZ-Link NHS-LC-LC-biotin (Pierce cat no. 21343), according to the manufacturer's instructions, followed by binding of the biotinylated TNFR1 to a Streptavidin-coated BIAcore chip. […] Examples for binding to the different species are shown in FIGS. 7 and 8, with a summary of the results in Table 2.
This is another data set of the same source.

In assay [8] the target is dog TNFR1 (recombinant, R&D Systems cat no. 4017-TR-025/CF, biotinylated) (dog). Kind of assay: BIAcore, dog TNFR1 on SA chip.
Assay [9] has as its target T6, peptide A3 (negative control fragment of human TNFR1) (human, cysteine pairing not given here; also: biotinylated, position not given here).
T6 construct: also called control peptide
T6 peptide: SGSGNDCPGPGQDTDCREC
Briefly: BIAcore, biotinylated peptide A3 on SA chip.

The target of assay [10] is T7, mouse TNFR1 (recombinant, R&D Systems cat no. 425-R1-050/CF, biotinylated) (mouse, UniProt P25118 22-212, biotinylated with EZ-Link NHS-LC-LC-biotin).
T7 construct: also called murine TNFR1; biotinylated mouse TNFR1
T7 sequence (looked up): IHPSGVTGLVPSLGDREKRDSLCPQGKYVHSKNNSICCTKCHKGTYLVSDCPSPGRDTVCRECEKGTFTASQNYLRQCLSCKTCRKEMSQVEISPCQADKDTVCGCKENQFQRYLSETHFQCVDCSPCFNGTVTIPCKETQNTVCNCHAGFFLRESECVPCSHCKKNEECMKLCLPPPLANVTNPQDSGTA
Briefly: BIAcore, mouse TNFR1 on SA chip.
Source text: as §1

The target in assay [11] is T8, peptide E5 (overlapping domain-3 peptide of human TNFR1) (human, also: biotinylated, position not given here).
T8 construct: also called peptide 3
T8 peptide: SGSGNQYRHYWSENLFQCF
Briefly: BIAcore, biotinylated peptide E5 on SA chip, dAb at 2.5 µM.

The target in assay [12] is T3, human TNFR1 (recombinant, R&D Systems …). Briefly: BIAcore, human TNFR1.
Assay [13] addresses T1, mouse serum albumin (MSA, Sigma-Aldrich). Briefly: BIAcore, MSA; DMS0169 (DOM7h-11-12 AlbudAb).
Assay [14] addresses T9, human serum albumin (HSA, Sigma-Aldrich) (human, UniProt P02768 25-609).
T9 construct: also called human albumin
Briefly: BIAcore, HSA on CM5 chip. The essentials: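 HSA immobilised on a CM5 chip by EDC/NHS amine coupling. Constructs (anti-TNFR1 dAb–linker–AlbudAb, N- to C-terminal) injected at 1 μM over the surface, with binding followed by SPR.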

The target in another assay is T10, rat albumin (rat, UniProt P02770 25-608).
T10 construct: also called rat serum albumin
T10 sequence (P02770 25-608 limits assumed): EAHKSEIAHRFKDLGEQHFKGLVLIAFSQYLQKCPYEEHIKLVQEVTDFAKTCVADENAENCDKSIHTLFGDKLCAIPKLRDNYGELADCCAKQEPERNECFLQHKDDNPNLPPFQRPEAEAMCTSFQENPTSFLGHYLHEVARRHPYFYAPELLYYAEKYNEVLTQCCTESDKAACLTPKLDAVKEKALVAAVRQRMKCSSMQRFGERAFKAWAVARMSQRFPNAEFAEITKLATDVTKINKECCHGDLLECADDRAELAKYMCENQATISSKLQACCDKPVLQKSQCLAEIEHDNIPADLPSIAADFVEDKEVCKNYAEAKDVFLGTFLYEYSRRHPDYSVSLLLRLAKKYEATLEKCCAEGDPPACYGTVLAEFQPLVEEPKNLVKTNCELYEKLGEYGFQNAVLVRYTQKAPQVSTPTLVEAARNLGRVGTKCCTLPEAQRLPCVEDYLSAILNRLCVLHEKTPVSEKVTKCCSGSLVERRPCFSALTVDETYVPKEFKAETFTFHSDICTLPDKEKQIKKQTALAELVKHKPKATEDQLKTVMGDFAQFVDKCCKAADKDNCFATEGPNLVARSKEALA
Kind of assay: BIAcore; rat albumin.

Assay [15] addresses T1, mouse serum albumin (MSA, Sigma-Aldrich). Briefly: BIAcore; mouse albumin.
Assay [16] has the same target. Kind of assay: BIAcore, MSA on CM5 chip. The essentials:
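DOM0100 anti-TNFR1 dAb–linker–AlbudAb fusions were injected at 1 μM over MSA amine-coupled to a CM5 chip. Binding was monitored by SPR, and off-rates were determined.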

Assay [17] addresses T11, TNFR1-Fc fusion (R&D Systems Cat #372-RI) (human, UniProt P19438 30-211).
T11 construct: range 30-211; also called TNFR1-containing beads; not shown: Human IgG1 (Pro100-Lys330)
Briefly: receptor binding assay: TNFR1-Fc on beads incubated with the dAb, then with TNFα (blocked ligand); % inhibition of TNFα binding to TNFR1.

Assay [18] addresses T11, TNFR1-Fc fusion (R&D Systems Cat …). Briefly: receptor binding assay: TNFR1-Fc on anti-IgG beads, dAb titrated, blocked ligand TNFα detected with biotinylated anti-TNFα and fluorescent streptavidin (FMAT). As for the experimental part: The potency of the dAbs was determined against human TNFR1 in a receptor binding assay. This assay measures the binding of TNF-alpha to TNFR1 and the ability of soluble dAb to block this interaction. The TNFR1-Fc fusion (R&D Systems, Cat#372-RI.) is captured on a bead pre-coated with goat anti-human IgG (Spherotech, Cat#HUP-60-S). The receptor coated beads are incubated with TNF-alpha (10 ng/ml, Peprotech Cat#300-01A), dAb, biotin conjugated anti-TNF-alpha (Hycult Biotechnology Cat#HM2027.) and streptavidin Alexa Fluor 647 (Molecular Probes, (Invitrogen) Cat#32357) in a black sided clear bottomed 384 well plate. After 6 hours the plate is read on the ABI 8200 Cellular Detection system and bead associated fluorescence determined. If the dAb blocks TNF-alpha binding to TNFR1 the fluorescent intensity will be reduced.

The target of assay [19] is T5, peptide D5 (domain-3 peptide of human …). Briefly: BIAcore, biotinylated peptide D5 on SA chip.
For assay [20], the target named is T6, peptide A3 (negative control fragment …). Briefly: BIAcore, biotinylated peptide A3 on SA chip.
Assay [21] has as its target T4, peptide D2 (domain-1 peptide of human …). Briefly: BIAcore, biotinylated peptide D2 on SA chip.
For assay [22], the target named is T8, peptide E5 (overlapping domain-3 …). Kind of assay: BIAcore, biotinylated peptide E5 on SA chip.

T9 sequence (P02768 25-609 limits assumed): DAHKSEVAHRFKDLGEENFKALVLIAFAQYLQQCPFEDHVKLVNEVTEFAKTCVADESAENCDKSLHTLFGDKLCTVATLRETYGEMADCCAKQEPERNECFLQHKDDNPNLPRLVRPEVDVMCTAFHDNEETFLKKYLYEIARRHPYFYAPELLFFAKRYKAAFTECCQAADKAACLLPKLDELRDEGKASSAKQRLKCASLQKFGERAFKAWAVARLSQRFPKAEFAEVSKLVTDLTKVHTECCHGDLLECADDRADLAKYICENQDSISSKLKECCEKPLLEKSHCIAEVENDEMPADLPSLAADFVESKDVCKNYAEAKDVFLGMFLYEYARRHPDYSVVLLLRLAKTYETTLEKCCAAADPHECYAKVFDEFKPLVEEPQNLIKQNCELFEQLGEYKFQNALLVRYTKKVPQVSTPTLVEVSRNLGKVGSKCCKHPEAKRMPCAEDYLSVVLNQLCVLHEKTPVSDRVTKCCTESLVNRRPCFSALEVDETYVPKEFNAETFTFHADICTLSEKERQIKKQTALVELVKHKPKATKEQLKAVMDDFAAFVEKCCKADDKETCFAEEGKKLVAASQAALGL

B1: DMS0168 (bispecific antibody)
chain: EVQLLESGGGLVQPGGSLRLSCAASGFTFVKYSMGWVRQAPGKGLEWVSQISNTADRTYYAHSVKGRFTISRDNSKNTLYLQMNSLRAEDTAVYYCAIYTGRWVPFEYWGQGTLVTVSSASTSGPSDIQMTQSPSSLSASVGDRVTITCRASQSIIKHLKWYQQKPGKAPKLLIYGASRLQSGVPSRFSGSGSGTDFTLTISSLQPEDFATYYCQQGARWPQTFGQGTKVEIKRAAAEQKLISEEDLN
notes: anti-TNFR1 dAb / AlbudAb in-line fusion
As a reminder, the Kd is the constant that tells how readily two partners part at equilibrium. B1 yielded a Kd in [1] of about 200 nM. Further, the “ND50 (MRC5)” value in assay [2] was found to be 16 nM.

B2: DOM1h-543 (other)
VH: EVQLLESGGGLVQPGGSLRLSCAASGFTFMRYRMHWVRQAPGKGLEWVSSIDSNGSSTYYADSVKGRFTISRDNSKNTLYLQMNSLRAEDTAVYYCAKDRTERSPVFDYWGQGTLVTVSS
notes: VH dAb
B2: the binding result in [3] is “binds”.

B3: DOM1h-574-16 (other)
VH: EVQLLESGGGLVQPGGSLRLSCAASGFTFVKYSMGWVRQAPGKGPEWVSQISNTGDRTYYADSVKGRFTISRDNSKNTLYLQMNSLRAEDTAVYYCAIYTGRWEPFDYWGQGTLVTVSS
notes: VH dAb; also called DOM1h-57-16 [sic]; the DOM0100 dAb
In the case of B3, the binding result in assay [4] was “binds”; in [6], “binds”; in [9], “no binding (tested: 2.5 µM)”; in [11] it was “binds”. In addition, in [5], the “MRC-5 ND50 (TNFα-mediated IL-8 release)” value was 8 nM. The Kd in [7] was determined as 1 nM; in assay [8], 20 nM; in assay [10], 20 nM; in assay [12], 1 nM.

B4: DMS0169 (bispecific antibody)
chain: EVQLLESGGGLVQPGGSLRLSCAASGFTFVKYSMGWVRQAPGKGLEWVSQISNTADRTYYAHSVKGRFTISRDNSKNTLYLQMNSLRAEDTAVYYCAIYTGRWVPFEYWGQGTLVTVSSASTSGPSDIQMTQSPSSLSASVGDRVTITCRASRPIGTMLSWYQQKPGKAPKLLILFGSRLQSGVPSRFSGSGSGTDFTLTISSLQPEDFATYYCAQAGTHPTTFGQGTKVEIKRAAAEQKLISEEDLN
notes: as for B1
Turning to B4, the “ND50 (MRC5)” value in [2] came to 2.7 nM. The molecule further gave a Kd in assay [13] of about 200 nM.

B5: DMS0182 (bispecific antibody)
chain: EVQLLESGGGLVQPGGSLRLSCAASGFTFVKYSMGWVRQAPGKGPEWVSQISNTGDRTYYADSVKGRFTISRDNSKNTLYLQMNSLRAEDTAVYYCAIYTGRWEPFDYWGQGTLVTVSSASTDIQMTQSPSSLSASVGDRVTITCRASRPIGTTLSWYQQKPGKAPKLLIWFGSRLQSGVPSRFSGSGSGTDFTLTISSLQPEDFATYYCAQAGTHPTTFGQGTKVEIKRAAAEQKLISEEDLN
notes: in-line fusion of an anti-TNFR1 dAb and an anti-serum albumin dAb (AlbudAb)
For orientation: koff means a measure of how fast the partners let go of each other. Turning to B5, the koff in assay [14] was found to be 0.17 s⁻¹; in assay [16], 0.75 s⁻¹. Further, the Kd (with rat albumin; in [15]) was over 1000 nM each time. Moreover, the “ND50 (MRC5)” value in assay [2] amounted to 6 nM.

B6: DOM1h-131-511 (other)
VH: EVQLLESGGGLVQPGGSLRLSCAASGFTFAHETMVWVRQAPGKGLEWVSHIPPVGQDPFYADSVKGRFTISRDNSKNTLYLQMNSLRAEDTAVYYCALLPKRGPWFDYWGQGTLVTVSS
notes: also called control dAb
Turning to B6, the “IC50 (read off the curve)” value in [17] and in assay [18] was about 0.1 nM each time. In addition, the binding result in [19], in [20], in [21] and in [22] was “no binding (tested: 2.5 µM)” throughout.
